In test [1] the target is T1, recombinant human OX40 (R&D #1493-CD) (human, UniProt P43489 29-216, limits assumed).
T1 construct: Coated on ELISA plates
T1 sequence (looked up): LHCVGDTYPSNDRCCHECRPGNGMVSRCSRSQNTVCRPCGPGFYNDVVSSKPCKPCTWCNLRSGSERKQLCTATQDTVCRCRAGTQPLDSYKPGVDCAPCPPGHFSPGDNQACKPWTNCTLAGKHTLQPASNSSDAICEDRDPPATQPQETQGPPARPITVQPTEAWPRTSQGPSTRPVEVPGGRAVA
The experiment in a line: ELISA, coated OX40. The method, then:
(§1) Binding to TNFR superfamily members for which ELISA methods had already been established (CD40 and OX40) was evaluated to detect potential propensity to cross react to non-target proteins.
(§2) ELISA plates (Greiner #655074) were coated with 50 μl/well of recombinant human OX40 (R&D #1493-CD), CD40-Fc (Ancell #504-820) or CD137 (R&D #838-4B) diluted to a final concentration of 0.5 μg/ml in PBS for 1 h at 37° C. or overnight at 4° C. Plates were washed with PBS+0.05% TWEEN20 (PBST), followed by block with PBST+1% bovine serum albumin (BSA). Antibody samples were prepared as serial 1/10 dilutions from 10-0.01 μg/ml in PBST+1% BSA and incubated for 1 h in room temperature, followed by detection using a horse radish peroxidase-conjugated anti-human kappa light chain antibody (AbD Serotec # STAR127P) and developed using SuperSignal ELISA Pico Chemiluminescent substrate (Pierce ThermoScientific #37069).
Background: ELISA stands for enzyme-linked immunosorbent assay.

Test [2] addresses T2, CD40-Fc (Ancell #504-820) (human, UniProt P25942 21-193).
T2 construct: Coated on ELISA plates; not shown: Fc part of the commercial fusion protein; not described
In words: ELISA, coated CD40-Fc. As for the experimental part: as §1, §2

Test [3] has as its target T3, cynomolgus CD137 (ELISA, Example 15) (cynomolgus, UniProt A9YYE7 24-186).
T3 construct: Reagent not described; also called cyno CD137
In words: ELISA, cynomolgus CD137.

Test [4] concerns the target T4, recombinant human CD137-Fc (R&D #838-4B) (human, UniProt Q07011 24-186).
T4 construct: Bought protein coated on ELISA plates; also called CD137 (R&D #838-4B); not shown: Fc part of the commercial fusion protein; not described
In words: ELISA, coated human CD137-Fc.

Test [5] has as its target T5, cynomolgus CD137 on transfected CHO cells (CHO-cyCD137) (cynomolgus (Macaca fascicularis); human).
T5 construct: extracellular domain;domain: transmembrane and intracellular part; also called cyno CD137
The experiment in a line: flow cytometry; EC50 on CHO-cyCD137 against EC50 on CHO-huCD137. As for the experimental part: (§3) Binding and EC50 was determined using flow cytometric of CHO cells transfected with human CD137, cynomolgus CD137 or empty vector. The extracellular part of human or cynomolgus CD137 was fused to the transmembrane and intracellular part of human CD40 and cloned into pcDNA3.1. The vector was subsequently stably transfected into CHO cells. […] CD137-transfected and empty vector-transfected cells were incubated with CD137 antibodies for at least 1 h at 4° C. to saturate the binding. In order to minimize antibody internalization, 0.05% sodium azide was used in the incubation buffer and all work was performed on ice. The CD137 antibodies were detected using PE-conjugated anti-hIgG antibody (109-115-098, Jackson Immunoresearch laboratories), incubated for 30 min at 4° C. Directly after staining the cells were fixed with a paraformaldehyde solution (10× concentrate BD CellFIX, BD biosciences #340181). Cells were analyzed by flow cytometry using FACSVerse (BD Biosciences). The median fluorescence intensity (MFI) for each sample was determined and the dose response data was analysed using Graph Pad Prism.
(§4) MFI data was normalized for each antibody, where 0% is defined as the lowest value and 100% is the highest value in the dose titration for each antibody.
A general note: In flow cytometry, cells or beads pass a laser one at a time.

Test [6] concerns the target T6, 1552: Human CD137 with mouse domains 2B, 3A and 3B (aa 64-118) (human; mouse, UniProt P20334 63-117).
T6 construct: Human/mouse chimera transiently expressed on FreeStyle 293-F cells
In words: flow cytometry on transfected 293-F cells, human/mouse CD137 chimera. As for the experimental part:
The ability of each antibody to bind to a panel of human/mouse CD137 chimeras expressed on the surface of transfected cells was analyzed by flow cytometry.
The chimeras were designed by exchanging domains or modules of the human CD137 with the corresponding mouse domain. Genes of CD137 human/mouse chimeras were synthesized (GenScript) and constructs cloned into pcDNA3.1 vector (Invitrogen) and transiently transfected into FreeStyle 293-F cells (Invitrogen). The transfected cells were incubated with CD137 antibodies and control antibodies, followed by incubation with anti-human IgG-PE (Jackson Immunoresearch) for detection and analyzed with FACS Verse (BD Biosciences). Binding to the different chimeric constructs was calculated as relative MFI compared to the binding of the isotype control, followed by normalization to the full-length human CD137 construct to minimize the effect of affinity differences between individual antibodies.

Test [7] has as its target T5, cynomolgus CD137 on transfected CHO …. In words: flow cytometry on CHO-cyCD137 cells; 95% confidence interval of the EC50.
For test [8], the target named is T7, human CD137 on transfected CHO cells (CHO-huCD137) (human).
T7 construct: domain: transmembrane and intracellular part
T7 sequence (P25942 other isoform, or with tags, fused parts or gaps limits assumed): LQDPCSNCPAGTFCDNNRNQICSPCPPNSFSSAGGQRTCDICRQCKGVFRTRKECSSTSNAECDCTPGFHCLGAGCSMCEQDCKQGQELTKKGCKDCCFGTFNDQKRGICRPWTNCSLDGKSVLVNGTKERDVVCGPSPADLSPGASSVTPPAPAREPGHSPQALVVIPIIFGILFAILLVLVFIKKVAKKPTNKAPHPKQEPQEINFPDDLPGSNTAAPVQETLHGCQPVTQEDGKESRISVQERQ
In words: flow cytometry on CHO-huCD137 cells; 95% confidence interval of the EC50. As for the experimental part: as §3, §4

The target in test [9] is T8, Human CD137 (R&D systems) (human, UniProt Q07011 24-186, limits assumed).
T8 construct: also called CD137 coated on the chip surface
T8 sequence (Q07011 24-186 limits assumed): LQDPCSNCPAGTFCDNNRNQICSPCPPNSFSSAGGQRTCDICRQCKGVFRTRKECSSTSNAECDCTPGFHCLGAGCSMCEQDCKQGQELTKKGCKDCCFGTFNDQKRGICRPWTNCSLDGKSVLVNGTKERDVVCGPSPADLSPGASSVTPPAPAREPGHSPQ
The experiment in a line: SPR (Biacore), human CD137 immobilised, bivalent antibody as analyte, 1:1 Langmuir model. As for the experimental part:
Human CD137 (R&D systems) was immobilized to the Biacore™ sensor chip, CMS, using conventional amine coupling. […] The association was followed for 5 minutes and the dissociation for 15 minutes. Regeneration was performed twice using 10 mM Glycine pH 1.7 for 30 seconds. The kinetic parameters and the affinity constants were calculated using 1:1 Langmuir model.
The affinities of the antibodies were in the nanomolar to sub-nanomolar range (Table 3) measured using bivalent antibodies flowed over CD137 coated on the chip surface.
A general note: Surface plasmon resonance follows binding to a sensor surface in real time, without labels.

Test [10] concerns the target T7, human CD137 on transfected CHO cells …. In words: flow cytometry on CHO cells transfected with human CD137, PE anti-hIgG detection, MFI normalised 0-100% for each antibody. The method, then: as §3, §4

The term EC50 denotes the midpoint of the concentration-response curve. By koff is commonly meant a measure of how fast the partners let go of each other. The low end stands for slow dissociation, the high end for fast dissociation. The term kon denotes the rate constant with which the complex forms. As a reminder, the EC50 (read off the curve) is the concentration that produces a half-maximal response. Higher therefore signals lower potency in that assay.

T5 sequence (P25942 other isoform, or with tags, fused parts or gaps): as the sequence (P25942 other isoform, or with tags, fused parts or gaps limits assumed) above, with P4L, N19S, R50K, T66I, P67S, F69Y, G75E, V149A counted along it
T6 sequence (P20334 other isoform, or with tags, fused parts or gaps limits assumed): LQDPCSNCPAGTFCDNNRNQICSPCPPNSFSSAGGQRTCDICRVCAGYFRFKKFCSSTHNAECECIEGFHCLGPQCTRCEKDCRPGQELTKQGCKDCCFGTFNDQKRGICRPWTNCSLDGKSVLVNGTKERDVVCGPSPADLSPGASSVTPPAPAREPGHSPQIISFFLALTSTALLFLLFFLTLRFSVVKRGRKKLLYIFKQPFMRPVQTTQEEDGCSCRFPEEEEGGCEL
T2 sequence (P25942 21-193 limits assumed): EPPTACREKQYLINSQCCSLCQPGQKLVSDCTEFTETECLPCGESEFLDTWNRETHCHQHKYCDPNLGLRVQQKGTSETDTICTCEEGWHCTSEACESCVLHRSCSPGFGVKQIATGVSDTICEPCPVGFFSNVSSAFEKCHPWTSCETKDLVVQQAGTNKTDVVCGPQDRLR
T4 sequence (Q07011 24-186 limits assumed): as the sequence (Q07011 24-186 limits assumed) above
T3 sequence (A9YYE7 entry or part of it): as the sequence (Q07011 24-186 limits assumed) above, with P4L, N19S, R50K, T66I, P67S, F69Y, G75E, V149A counted along it

B1: 1630/1631 (antibody, human IgG4 S228P, kappa, V domains shown)
VH: EVQLLESGGGLVQPGGSLRLSCAASGFTFGYSYMSWVRQAPGKGLEWVSSIGSGSSYTYYADSVKGRFTISRDNSKNTLYLQMNSLRAEDTAVYYCARVYSSPGIDYWGQGTLVTVSS
VL: DIQMTQSPSSLSASVGDRVTITCRASQSISSYLNWYQQKPGKAPKLLIYAASSLQSGVPSRFSGSGSGTDFTLTISSLQPEDFATYYCQQYYTWVPFTFGQGTKLEIKR
notes: the format in each assay is not restated
As to B1, the binding result in test [1] and in test [2] was “no binding (tested: 10 µg/ml highest concentration tested)” throughout. Further, the half-maximal effective concentration (EC50) is 0.85 nM in test [3], 0.41 nM in [4], 0.12 to 0.16 µg/mL in [7] and 0.23 to 0.34 nM in [8]. Also, the “Ratio, cyno:human” value in test [5] was 0.63. Besides, in [6], the “MFI antibody/isotype control, normalized to full-length human CD137” value is 0.25. In test [9], the Kd turned out to be 0.641 nM. Further, the koff in test [9] stood at 0.00118 s⁻¹. Besides, the kon in test [9] came out at 1.85e+06 M⁻¹ s⁻¹. For the same molecule, the “EC50 (read off the curve)” value in test [10] is ~0.2 µg/mL.

Source of the values: patent US20190352411A1 (ALLIGATOR BIOSCIENCE, published 2019).
